From the supplement of paper PMC10567573

B1: STK38L (parent)
chain: NWKETLVFPPEVPISEKAKDLILR
B2: CD69 (parent)
chain: FVAENSSLHPESGQENDATSPHFS

Variants of: B1
Experiment: protein stability index of a GFP-peptide fusion (GPS, HEK-293T) (PSI 1-6); higher = more stable
Conditions: c terminus: a fixed tail appended
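Also: lentivirally expressed fusions sorted by FACS into six bins by GFP to DsRed ratio, PSI derived from sequencing read proportions per bin multiplied by bin number.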

Protein stability index: each site, then its substitutions
P13: V 3.67 | Y 1.97 | S 3.92 | T 2.44
A18: K 3.4 | I 1.89 | S 3.32 | E 4.56 | M 2.39 | N 3.38 | W 2.65 | L 1.8 | T 3.41 | C 2.72 | V 2.72 | D 3.76 | Y 2.45 | G 3.21 | Q 3.57 | H 2.54 | R 3.69 | F 3.06 | P 3.1
I14: L 2.88 | E 3.53 | C 3.19 | A 3.44 | H 2.84 | Y 2.1 | M 3.77 | W 2.05 | N 3.38 | D 4.44 | K 4.07 | F 2.32 | T 4.42 | R 3.44 | Q 3.23
K19: N 3.07 | I 2.01 | D 3.38 | T 3.41 | P 3.17 | S 3.53 | G 2.96 | R 2.96 | L 1.49 | A 2.69 | M 2.19 | E 3.77 | F 1.95 | Y 2.29 | H 2.78 | C 2.87 | Q 2.86 | W 2.26
L23: Q 4.22 | Y 2.99 | H 3.78 | D 4.92 | V 3.27 | M 2.6 | T 3.77 | R 4.19 | E 4.15 | S 3.94 | G 4.47 | C 3.36 | W 2.12 | K 4.24 | F 2.9 | P 3.9 | A 3.75 | I 3.24 | N 4.09
K17: T 3.7 | L 2.15 | Q 3.05 | C 2.81 | P 3.41 | S 4.07 | E 3.32 | D 3.89 | F 2.93 | H 2.98 | I 1.92 | R 2.8 | N 3.37 | A 3.17 | Y 3.14 | W 2.41 | V 2.21 | M 2.85 | G 2.8
E16: Q 2.43 | T 2.6 | V 3.14 | G 2.31 | I 2.14 | A 2.66 | R 2.48 | N 3.3 | C 2.7 | H 2.34 | F 2.04 | Y 2.5 | K 2.17 | S 2.33 | D 3.64 | P 3.02 | M 1.66
R24: E 3.57 | G 3.9 | P 3.43 | Y 1.63 | F 2.13 | W 2.11 | K 3.6 | H 3.16 | L 2.03 | I 1.88 | T 3.59 | N 3.96 | Q 2.83 | S 3.31 | D 4.32 | A 3.09 | V 1.91 | C 2.16 | M 2.64
S15: W 2 | Y 2.81 | G 2.92 | M 3.37 | H 2.68 | Q 3.87 | A 2.84 | V 2.31 | F 2.44 | K 3.09 | E 4.21 | I 1.89 | T 3.27 | R 2.79 | N 2.62 | C 3.67 | P 2.68 | L 1.84 | D 4.1
I22: Y 3.51 | Q 3.88 | E 4.54 | P 4.36 | D 4.43 | T 4.22 | F 2.79 | M 4.15 | H 3.68 | N 3.62 | S 3.89 | L 3.21 | C 3.07 | V 3.06 | K 3.66 | G 3.23 | A 4.17 | R 4.04 | W 3.42
L21: Q 3.41 | W 2.58 | G 3.81 | M 3.42 | R 3.62 | T 4.44 | S 3.72 | C 3.62 | F 2.63 | A 3.35 | N 3.56 | H 3.48 | D 3.72 | P 3.69 | Y 2.71 | I 3.27 | E 4.66 | V 3.53
D20: R 2.94 | M 1.94 | C 2.06 | N 2.63 | T 2.92 | Q 3 | G 2.31 | K 2.57 | P 2.65 | Y 1.8 | A 2.92 | H 1.9 | I 1.52 | W 1.92 | V 2.23 | S 2.45 | F 2.52

Variants of: B2
Experiment: as above
Conditions: c terminus: a fixed tail appended

Protein stability index of substitutions, site by site:
A3: V 3.43 | Q 3.27 | R 2.88 | D 2.95 | N 3.21 | K 2.95 | T 3.12 | I 2.86 | M 3.11 | F 3.02 | E 3.57 | H 3.03 | S 2.56 | P 2.41 | Y 3.02 | L 2.95 | W 2.82 | C 2.73 | G 2.98
V2: M 4.87 | F 5.13 | D 5.18 | I 4.44 | C 4.82 | G 5.26 | N 5.25 | Y 4.84 | S 5.39 | H 4 | P 5.46 | R 5.36 | W 4.86 | T 5.17 | K 5.4 | A 4.94 | Q 4.86 | L 5 | E 5.5
S7: A 3.13 | Q 3.37 | G 3.29 | P 3.11 | T 3.24 | E 4.06 | R 2.13 | V 2.73 | C 2.46 | F 2.27 | L 2.67 | D 4.39 | I 2.39 | H 2.83 | K 2.51 | N 3.3 | M 2.22
F1: W 5.2 | K 5.78 | V 4.96 | E 5.62 | Y 3.64 | D 5.78 | R 5.12 | C 5.02 | S 5.4 | A 4.81 | H 4.98 | G 5.41 | P 5.51 | Q 5.65 | T 5.58 | I 5.04 | L 5.13 | M 5.49 | N 5.39
N5: C 2.5 | F 1.94 | Q 3.22 | R 2.16 | A 3.1 | V 2.96 | G 3.21 | W 1.99 | Y 2.87 | D 4.57 | P 2.56 | T 2.77 | I 2.16 | E 3.7 | L 2.95 | K 2.69 | S 2.57 | H 2.61 | M 2.45
S6: V 2.48 | M 2.55 | F 2.21 | N 2.69 | H 3.01 | K 2.72 | C 2.46 | D 4.33 | G 3.37 | I 2.38 | R 2.27 | Y 2.85 | E 4.05 | Q 3.08 | P 2.58 | T 3.34 | A 2.96 | W 2.07 | L 1.5
E4: C 1.93 | S 2.44 | D 2.61 | R 2.17 | W 3.23 | H 2.5 | T 2.37 | L 2.9 | I 2.42 | Q 3.31 | F 2.18 | K 2.89 | P 3.51 | Y 2.39 | N 2.87 | M 2.1 | V 3.2 | A 2.85 | G 3.99
